Publication PMC4417627 (Biochemistry, 2013)
Positions count from the first letter of the chain named. Read-outs that look alike come from different tables or passages of the source.

B1: 5xAla NEMO, recombinant full-length, C-terminal 6xHis (natural protein, human, UniProt Q9Y6K9 1-419, looked up)
chain: MNRHLWKSQLAEMVQPSGGPAADQDVLGEESPLGKPAMLHLPSEQGAPETLQRCLEENQELRDAIRQSNQILRERAEELLHFQASQREEKEFLMAKFQEARKLVERLGLEKLDLKRQKEQALREVEHLKRAQQQMAEDKASVKAQVTSLLGELQESQSRLEAATKEAQALEGRARAASEQARQLESEREALQQQHSVQVDQLRMQGQSVEAALRMERQAASEEKRKLAQLQVAYHQLFQEYDNHIKSSVVGSERKRGMQLEDLKQQLQQAEEALVAKQEVIDKLKEEAEQHKIVMETVPVLKAQADIYKADFQAERQAREKLAEKKELLQEQLEQLQREYSKLKASCQESARIEDMRKRHVEVSQAPLPPAPAYLSSPLALPSQRRSPPEEPPDFCCPKCQYQAPDMDTLQIHVMECIE
B2: 6xAla NEMO containing Cys54 (Cys54 added back into the 7xAla construct) (natural protein, human, UniProt Q9Y6K9 1-419, looked up)
chain: B1 chain with C347A
B3: 6xAla NEMO containing Cys76 (Cys76 added back into the 7xAla construct) (natural protein, human, UniProt Q9Y6K9 1-419, looked up)
chain: B1 chain with C54A, A76C, C347A
B4: 6xAla NEMO containing Cys11 (Cys11 added back into the 7xAla construct) (natural protein, human, UniProt Q9Y6K9 1-419, looked up)
chain: B1 chain with A11C, C54A, C347A
B5: 6xAla NEMO containing Cys347 (Cys347 added back into the 7xAla construct) (natural protein, human, UniProt Q9Y6K9 1-419, looked up)
chain: B1 chain with C54A
B6: 5xAla NEMO, full-length, expressed in NEMO-deficient mouse fibroblasts (natural protein, human, UniProt Q9Y6K9 1-419, looked up)
chain: B1 chain
B7: 7xAla NEMO, recombinant full-length, C-terminal 6xHis (natural protein, human, UniProt Q9Y6K9 1-419, looked up)
chain: B1 chain with C54A, C347A

Columns and labels:
[1] = target: IKKβ 680-756 (Homo sapiens) (UniProt O14920); experiment: SPR; conditions: cited from earlier work
[2] = target: IKKβ 680-756 (Homo sapiens) (UniProt O14920); experiment: ITC; conditions: cited from earlier work
[3] = target: IKKβ 701-745 (Homo sapiens) (UniProt O14920); experiment: SPR; conditions: cited from earlier work
cross-linking [4] = target: the molecule itself; experiment: cross-linking
cross-linking [5] = target: the molecule itself; experiment: cross-linking; remark: listed apart in the source
[6] = target: the molecule itself; experiment: fluorescence polarisation

Sequence of IKKβ 680-756 (Homo sapiens) (O14920 680-756): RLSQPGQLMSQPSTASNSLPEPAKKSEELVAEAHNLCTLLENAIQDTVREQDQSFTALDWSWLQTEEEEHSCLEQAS
Sequence of IKKβ 701-745 (Homo sapiens) (O14920 701-745): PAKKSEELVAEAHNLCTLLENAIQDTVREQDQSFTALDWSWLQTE

Molecule | stoichiometry N (cross-linking [4]) | other results
NEMO 38-196 (from UniProt Q9Y6K9) |  | Kd [1]: 3.4 nM; Kd [2]: 1000 nM
NEMO 2-200 (from UniProt Q9Y6K9) |  | Kd [3]: 76 nM
B1 | 2 | 
B2 | 2 | 
B3 | 2 | 
B4 | 2 | 
B5 | 2 | 
B6 |  | stoichiometry N (cross-linking [5]): 2
B7 | 2 | Kd [6]: < 5 nM
